According to patent publication US11685791B2, “Antibody binding specifically to N-terminal region of lysyl-tRNA synthetase exposed on cell membrane” (Zymedi Co., Ltd., priority 2017, dated 2023):

Key:
[1] = tested on: rat KRS N-terminal peptide fragments (rF1-rF5); assay: SPR (Biacore T200) of immobilized N3 IgG against rat KRS N-terminal peptide fragments; type: binding
Procedure: In the same manner as the experimental method described in Example 4-1 above, N3 IgG antibody was immobilized on the chip by using an amine coupling kit (GE Healthcare). Then, the peptides shown in Table 4 above dissolved in PBS solution at corresponding concentrations were allowed to flow for 60 s, and PBS was allowed to flow for 5 min. Then, the binding ability was analyzed by Biacore T200 Evaluation software v2.0 (GE Healthcare).

KRS 1-207 aa = molecular target: T1, KRS 1-207 aa (Homo sapiens, UniProt Q15046); assay: SPR (Biacore 2000) binding of IgGs to immobilized KRS; conditions: immobilized KRS 185 RU, antibody 6.25-100 nM
T1 construct: to the antigen (KRS 1-207 aa)
Procedure: The quantitative binding ability of the purified antibody proteins (N3 IgG and N5 IgG) to the antigen (KRS 1-207 aa) were measured using Biacore 2000 SPR (surface plasmon resonance) (GE healthcare, US) biosensor. After KRS was immobilized on a sensor chip (CM5, GE healthcare, US), antibody proteins (6.25-100 nM), which were serially diluted with HES buffer solution (10 mM HEPES, pH 7.4, 150 mM NaCl, 3 mM EDTA, 0.005% surfactant P20), were allowed to flow at a rate of 30 μl/min for 3 min, and 1 M NaCl/20 mM NaOH was allowed to flow at a rate of 30 μl/min for 3 min, thereby inducing the dissociation of proteins bound to the antigen. Mock IgG was used as control. Specific experiment conditions are as follows:
Immobilized level: 185 RU
Antibody: N3 IgG and N5 IgG
Running buffer: HBS-N buffer
Regeneration: 2 M NaCl, 20 mM NaOH (flow 30 ul/min 1 min)
The affinity was obtained from the kinetic rate constants (ka and kd) and equilibrium dissociation constants (KD) by using BIA evaluation ver. 3.2 software. FIGS. 6A-6B show SPR graph results of N3 IgG and N5 IgG, respectively. It was confirmed from FIGS. 6A-6B and Table 3 that N3 IgG and N5 IgG of the present invention has high specific binding ability to the KRS N-terminal region.

A549 cells [2] = assay: MTT cytotoxicity assay; type: cell-based, human; conditions: 0, 50, 100, 500 nM, 24 h, serum-free media
Procedure: MTT assay was performed on N3 IgG as a representative. A549 cells were seeded in 96-well plates (5,000 cell/well) and incubated. The cells were washed with serum-free media, and then treated with human mock IgG and N3 IgG of 0, 50, 100, 500 nM (in serum-free media). After 24-h incubation, MTT solution was added with 50 μg/well, followed by incubation for 4 h. After MTT solution was removed, the wells were treated with 100 ul of DMSO, and then the absorbance was measured at 570 nm.

[3] = tested on: pulmonary arterial hypertension (PAH) models; assay: Echocardiography in PAH model; type: in vivo, rat; conditions: MCT PAH rats, five animals per group
From the text: To induce PAH in seven-week-old SD rats (Orient Bio), 60 mpk of monocrotaline (MCT) was subcutaneously injected. […] All antibodies were i.v. injected twice a week, and sildenafil was orally administered every day.

A549 cells [4] = assay: Transwell cell migration assay (laminin); type: cell-based, human; conditions: 100 nM or 500 nM, 24 h, laminin-coated Transwell
Procedure: Cell migration was measured using a 24-well Transwell chamber with polycarbonate membrane (8.0 μm pore size, Costar) as disclosed in the prior art (Park, S. G. et al., Human lysyl-tRNA synthetase is secreted to trigger pro-inflammatory response, Proc. Natl. Acad. Sci. USA 102, 6356-6361 (2005)). In the Transwell chamber, the lower well was coated with 10 μg of laminin (in gelatin) and dried with UV. Thereafter, A549 cells were suspended in serum-free RPIM media, and then placed at a concentration of 1×10^5 cells per well in the upper chamber. The chamber was treated with N3 IgG or human mock IgG (control) at 100 nM or 500 nM, followed by incubation for 24 h. Thereafter, the chamber was washed twice with PBS, and treated with 70% MeOH (in PBS) for 30 min. The chamber was again washed twice with PBS, and treated with Hematoxylin solution for 30 min. The chamber was washed three times with DW, and the membrane in the chamber was cut and mounted on the slide glass.

[5] = tested on: monocyte/macrophage infiltration into lung tissues (CD68); assay: IHC staining of CD68 in lung tissues of PAH model; type: in vivo, rat; conditions: PAH rats, 1 mpk or 10 mpk, 3 weeks
Procedure: The collected lungs were fixed in paraformaldehyde (PFA) according to the ordinary procedure, and then paraffin-infiltrated and embedded through washing, dehydration, and clearing. The rat lung tissue paraffin blocks were micro-sectioned to a thickness of 6 μm, and slides were manufactured. Thereafter, staining was performed as below. The sample was first treated with xylene for 5 min three times, treated with 100% ethanol, 95% ethanol, 90% ethanol, and 70% ethanol, and DW in that order for 2 min, and washed with PBS for 5 min. After 0.3% H2O2 treatment, the sample was washed with PBS for 5 min twice. The sample was immersed in 0.01 M citrate buffer, heated, and washed with PBS-T (0.03% Tween 20). Thereafter, the sample was blocked (2% BSA & 2% goat serum in PBS) at room temperature for 30 min. The sample was stained with anti-CD68 antibody (1:200, ED1 clone, Abcam) at 4° C. overnight. The sample was washed with PBS-T for 5 min three times, and then treated with polymer-HRP anti-mouse envision kit (DAKO) at 4° C. for 1 h. The sample was washed with PBS-T three times, and then color-developed by the treatment with DAB substrate buffer and DAB chromogen 20. The stained tissue was treated with Mayer's hematoxylin (Sigma) for 1 min, and then treated with 70% ethanol, 90% ethanol, 95% ethanol, and 100% ethanol in that order for 2 min each twice. […]

[6] = tested on: human KRS N-terminal peptide fragments (F1-F5); assay: SPR (Biacore T200) of immobilized N3 IgG against human KRS N-terminal peptide fragments; type: binding
Procedure: First, N3 IgG antibody was immobilized to Biacore T200 (GE Healthcare) equipped with Series S sensor chip CM5 (GE Healthcare) by using an amine coupling kit (GE Healthcare). Then, the peptides shown in Table 4 below dissolved in PBS solution at corresponding concentrations were allowed to flow for 60 s. Then, PBS was allowed to flow for 5 min. Then, the binding ability was analyzed by Biacore T200 Evaluation software v2.0 (GE Healthcare).

[7] = N3 IgG immobilized, peptides in PBS

T1 sequence (Q15046 1-207): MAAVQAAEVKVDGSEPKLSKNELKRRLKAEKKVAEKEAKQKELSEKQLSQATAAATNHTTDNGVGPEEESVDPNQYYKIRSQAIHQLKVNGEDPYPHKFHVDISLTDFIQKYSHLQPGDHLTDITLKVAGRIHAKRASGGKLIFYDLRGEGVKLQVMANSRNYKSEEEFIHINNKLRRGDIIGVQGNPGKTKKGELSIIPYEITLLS

B1: N3 IgG: IgG converted from N3 scFv; VH SEQ ID NO: 49, VL SEQ ID NO: 51; binds KRS N-terminal region (antibody, V domains shown)
VH: EVQLLESGGGLVQPGGSLRLSCAASGFTFSSYDMSWVRQAPGKGLEWVSAISYDNGNTYYADSVKGRFTISRDNSKNTLYLQMNSLRAEDTAVYYSARMALDFDYWGQGTLVTVSS
VL: QSVLTQPPSASGTPGQRVTISCTGSSSNIGSNYVTWYQQLPGTAPKLLIYDNSNRPSGVPDRFSGSKSGTSASLAISGLRSEDEADYYCASWDDSLSAYVFGGGTKLTVL
relative binding ability, epitope F3 vs F1 (rat) [1]: stronger binding ability to epitope F3 than F1 | binding to rat KRS N-terminal epitopes F1-F5 (SPR) ([1]; F2 and F4 data not shown): bound to epitopes F1, F2, F3, and F4 of human (h), mouse (m), and rat (r) but not epitope F5 | Kd (KRS 1-207 aa): 83.4 nM | ka (KRS 1-207 aa): 109000 M⁻¹ s⁻¹ | kd (KRS 1-207 aa): 0.009055 s⁻¹ | cytotoxicity (MTT assay) (A549 cells [2]): no cytotoxicity | D-shaped left ventricle finding indicating pressure overload in the right ventricle [3]: not observed | inhibition of cell migration (A549 cells [4]): significantly inhibited | monocyte/macrophage infiltration into lung tissues (CD68 IHC) [5]: explicitly reduced | binding to human KRS N-terminal epitopes F1-F5 (SPR) [6, 7]: bound to epitopes F1, F2, F3, and F4, but not epitope F5 | rank of binding ability among human epitopes [6, 7]: the binding ability to epitope F4 was strongest, and the binding ability to F3, F2, and F1 was stronger in that order | main binding site in the KRS N-terminal region ([6]; amino acid positions): positions 15 to 29
